T1: recombinant EBOV GP (Ebola virus (EBOV), UniProt Q05320 33-650)
T1 sequence: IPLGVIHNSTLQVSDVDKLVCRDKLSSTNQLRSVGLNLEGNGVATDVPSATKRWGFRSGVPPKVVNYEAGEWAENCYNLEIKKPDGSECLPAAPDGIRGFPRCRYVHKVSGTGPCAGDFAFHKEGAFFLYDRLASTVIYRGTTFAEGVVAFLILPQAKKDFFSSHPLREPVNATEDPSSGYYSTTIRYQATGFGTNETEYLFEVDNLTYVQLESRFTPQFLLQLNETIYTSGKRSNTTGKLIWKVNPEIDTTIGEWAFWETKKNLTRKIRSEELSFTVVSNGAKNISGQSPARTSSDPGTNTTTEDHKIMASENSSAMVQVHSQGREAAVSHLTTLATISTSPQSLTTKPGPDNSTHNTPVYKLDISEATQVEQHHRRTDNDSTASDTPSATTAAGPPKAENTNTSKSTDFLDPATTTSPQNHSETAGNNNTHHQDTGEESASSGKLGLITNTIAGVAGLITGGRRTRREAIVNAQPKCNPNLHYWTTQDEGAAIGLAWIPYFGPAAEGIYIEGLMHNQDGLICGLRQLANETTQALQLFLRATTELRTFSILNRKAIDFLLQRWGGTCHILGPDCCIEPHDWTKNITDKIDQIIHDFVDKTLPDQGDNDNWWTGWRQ

B1: 17F6 human IgG1 chimeric mAb (antibody, V domains shown)
VH: DVQLQESGPGLVKPSQTVSLTCTVTGISITAGNYRWSWIRQFPGNKLEWIGYIYYSGTIAYNPSLTSRTAITRDSSKNQFFLEMNSLTAEDTATYYCARDRGWLLLDYWGQGTTLTVSS
VL: DVLMTQTPLSLPVSLGDQASISCRSSQTIVHSNGNTYLEWYLQKPGQSPKLLIYKVSSRFSGVPDRFSGSGSGTDFTLKISRVEAEDLGVYYCFQGSHFPYTFGGGTKLEIKR
B2: X10F3 human IgG1 chimeric mAb (antibody, V domains shown)
VH: QVQLEQSGAEVKKPGTSVKVSCKASGFFTFGSDAISWVRQAPGQGLEWMGVIIPVVGARTYAEKFQGRITITADTSTSTVFMDLSSLRSDDTAVYYCAREGARAATGHYKSMDIWGRGRTLV
VL: ELQMTQSPSSLSASVGDRVTITCRASQDIGPFLNWYQHKPGKPPKLLIYDVSNLQDGVPSTFSGSGSGTDFTLTISNLQPEDFATYYCLHYANYPRTFGPGTKVEIK
B3: X10B6 human IgG1 chimeric mAb (antibody, V domains shown)
VH: QVQLEQSGAEVKKPGTSVKVSCKASGFFTFGSDAISWVRQAPGQGLEWMGVIIPVVGARTYAEKFQGRITITADTSTSTVFMDLSSLRSDDTAVYYCAREGARAATGHYKSMDIWGRGRTLV
VL: ELLMTQSPSSLSASVGDRVTITCRASQGISTYLSWFQQKPGKPPKLLIYLTSSLEDGVPSRFSGAGSGTEFTLTISNLQPEDFASYYCLQYQSYPRTFGPGTKVEIK
B4: 16F6 human IgG1 chimeric mAb (antibody, V domains shown)
VH: EVQLVESGGGLVTPGGSLKLSCAASGFAFNYYDMFWVRQNTEKRLEWVAYINSGGGNTYYPDTVKGRFTISRDNAKKTLFLQMSSLRSEDTAMYYCARQLYGNSFFDYWGQGTSLTV
VL: DIVMTQSHKFMSTSVGDRVTITCKASQDVTTAVAWYQQKPGHSPKLLIYWASTRHTGVPDRFTGSGSGTDFTLTLNSVQAEDLALYYCQQHYSTPLTFGAGTKLEL
B5: X10B1 human IgG1 chimeric mAb (antibody, V domains shown)
VH: EVQLLESGPSLVKPSETLTLTCAVSGASISGDYLNWIRQPPGKGLEWIGGIFGSGGSTDYSPSFKSRVTISTDTSKNQFSLKLTSMTTADTAVYFCATALRGARFDAFDFWGQGRRV
VL: DIELTQSPATLSLSPGERATLSCRASQSVSTYLAWYQKKPGQAPRLLFYGASNRATGIPDRFSGRRSGTDFTLTISSLEPEDVGVYYCQQYNKWNSFGQGTKVEIK
B6: X10H2 human IgG1 chimeric mAb (antibody, V domains shown)
VH: QVQLEQSGAEVKKPGTSVKVSCKASGFTFGSDAISWVRQAPGQGLEWMGVIIPVVGARTYAEKFQGRITITADTSTSTVFMDLSSIRSDDTAVYYCAREGARAATGHYKSMDIWGRGTLV
VL: EIELTQSPSSLYASVGDKVTITCRASQGISTYLNWYQQKPGKAPKLLIYAASSLQSGVPSRFSGSGSGTEFTLTISSLQPEDFAAVYCQQYNSYPRTFGQGTKVEIK

The target of the assay is T1, recombinant EBOV GP. Put plainly: ELISA on plates coated with recombinant EBOV GP. (ELISA stands for enzyme-linked immunosorbent assay.)
For B1, the binding result is “no binding”.
The same measure for B2: “no binding”; for B3: “no binding”.
The entry for B4 is “no binding”; for B5 it is “no binding”.
Take B6: the binding result is reported as “no binding”.

(Values after patent publication US20230174627A1 (published 2023).)
